Test: yeast display, Sf9 membrane polyspecificity reagent, FACS + sequencing; frameworks hold sequencing errors
Method in brief: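 Using colony PCR, genes from sorted yeast display clones were amplified, then sequenced on MiSeq at 2 × 250 and filtered by CDR length. The clones had been stained with 10% biotinylated, detergent-solubilized Sf9 membrane reagent for 1 hour at 4 °C and sorted by FACS into low and high (top ~1%) gates on anti-HA and streptavidin fluorescence. Polyreactivity labels come from the gate of origin.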

Sequence	polyreactivity (PSR sort gate)
QVQLVESGGGLVQAGGSLRLSCAASGFTFYRYAMGWYRQAPGKERELVAAISWRGTSTYYADSVKGRFTISRDNAKNTVYLQMNSLKPEDTAVYYCAAPRNFGPYTSPRQPLYNYWGQGTQVTVSS	high polyreactivity
QVQLVESGGGLVQAGGSLRLSCAASGFTFRGYAMGWYRQAPGKERELVAAITAGGGSTSYADSVKGRFTISRDNAKNTVYLQMNSLKPEDTGVYYCARRPGTRTYLSKWGSKYDYWGQGTQVTVSS	high polyreactivity
QVQLVESGGGLVQAGGSLRLSCAASGYIFTPYAMGWYRQAPGKERELVAAITGSGSSTYYADSVKGRFTISRDNAKNTVYLQMNSLKPEDTAGYYCAADSYGFYGYYYYELEYWGQGTQVTVSS	low polyreactivity
QVQLVESGGRLVQPGGSLRLSCAASGRTFVLNAIGWYRQAPGKEREFVAAISWGGVRTDYADSVKGRFTISRDNAKNTVYLQMNSLKPEDTAVYYCATSGSRYRRYDYWGQGTQVTVSS	high polyreactivity
QVQLVESGGGLVQAGGSLRLTCAASGFIFQIYAMGWYRQAPGKERELVAAISSGGSTNYADSVKGRFTISRDNAKNTVYLQMNSLKPEDTAVYYCAAATQYWYFYSFKDKSGFRGYYWGQGTQVTVSS	high polyreactivity
QVQLVESGGGLVQAGGSLRLSCAASGYIFEIYAMGWYRQAPGKERELVAAISTRGGRTYYADSVKGRFTISRDNAKNTVYLEMKSLKPEDTAVYYCARESSIVPYGYWGQGTQVTVSS	low polyreactivity
QVQLVESGGGLVQAGGSLRLSCAASGRIFKGNAMGWYRQAPGKEREFVAAISQRGGSTYYADSVKGRFTISRDNAKNTVYLQMNSLKPEDTAVYFCAAAAQRPEGYYWGQGTQVTVSS	high polyreactivity
QVQLVESGGGLVQAGGSLRLSCAASGLTFYQNDLGWYRQAPGKERELVAAITLSGDITYYADSVKGRFTISRDNAKNTVFLQMNSLKPEDTAVYYCNADLYVDPWTYFGYDYWGQGTQVTVSS	low polyreactivity
QVQLVESGGGLVQAGGSLRLSCAASGITFSWYAMGWYRQAPGKEREFVATISASGGSTYYADSVKGRFTISRDNAKNTVYLQMNSLKAEDTAVYYCAAVIWYRNGARGTFDYWGQGTQETVSS	high polyreactivity
QVQLVESGGGLVQAGGSLRLSCAASGRISSANAMGWYRPAPGKERELVAAITWSGGSTYYADSVKGRFTISRDNAKNTVYIQMNSMKQEDTAVYYCAAESSAYGGGTSDAGYESDYWGQGTQVTVSS	low polyreactivity
QVQRVESGGGLVQAGGSLRLSCAASAFTFGANAMGWSRQAPGKERELVAAISVSDGITYYADSVKGRFTISRDNAKNTVYLLMNSLKPEDTAVYYCAAETYGYLFHSYDYWGQGTQVTVSS	low polyreactivity
QVQLVESGGGLVQAGGSLRLSCAASGSTINRNAMGWYRQAPGKERELVAGISYGGGSTYADSVKGRFTISRDNAKNTVYLQMNSLKPEDTAVYYCTADFRHGHRHDMNYWGQGTQVTVSS	low polyreactivity
QVQLVESGGGIVQAGGSLRLSCAASGFTYWFYAMGWYRQAPGKERELVAAISRGGSTYYADSVKGRFTFSRDKAKNTVYLQMNSLKPEDTAVYYCAADFVHRGYYYWGQGTQVTVSS	high polyreactivity
QVQLVESGGGLVQAGGSLRLSCAASGFIFRWYAMGGYRPAPGKERELVASITRCGSTYYADSVKGRFTISRDNAKNTVYLQMNSLKPEDTAVYYCAVDYLSPKYDYWGHGTQVTVSS	high polyreactivity
QVQLVESGGGLVQAGGSLRLSCAASGSIFFPYAMGWYRQAPGKERELVAASTRSGGRTYYADSVKGRFTISRDNAKNTVYLQMNSLKPEDTAVYYCAAGPWYKFYDWRPWFSYDYWGQGTQVTVSS	low polyreactivity
QFQLVESGGGLVQAGGSLRLSCAASGRIFFRNAMGWYIQAPGKETELVADNTNGGSTNYADSEKGRFTISRDNAKYTVYLQMNSLNPEDTAVYYCAADTLGVYDGDYWGQGTQVTVSS	low polyreactivity
QVQLVESGGGLVQAGGSLRLSCAASGSIFHYNAMGWYRQAPGKERELVARISVNGGRTYYADSVKGRFTISRDNAKNTVYLQMNSLKPEDTEVYYCAVEGVWRSFFYGYDSWGQGTQVTVSS	low polyreactivity
QVQLVESGGGLVQAGGSLRLSCAASGLTFGGNARGWYRQAPGNERELVAPISSRGGSTYYADSVKGRFTISRDNAKNTVYLQMNSLKPEDTAVYYCAAGNRYGVRQLYQIVTRYYWGQGTQVTVSS	high polyreactivity
QVQLVESGGGLVQAGGSLRLSCAATRRIFRRNPMGWYIQAPGKERELVATISANGGSTYYADSVKGRFTISRDNAKNTVYLQMNSLKPEATAVYYCAAQGWSWYWYQKIYYWGQGTQVTVSS	high polyreactivity
QVQVVESGGGLVQAGGSIRLSCAASGSILSRYAMGWYRQAPGKERELFAAITSSGGTTYYADSVKGRFTISRDTAKNTVYLQMNSLKPEDTAVYYCADHGSRYGYGDFYYWGQGTQVTVSS	high polyreactivity
QVQLVESGGGIVQAGGSLRLSCAASGNTFYPYTMGWYRQAPGKERELVADITYIGGDTYYADSVKGRFTISRDNAKNTVYLQMHTLKPEDTAVYYCNAVEVDHDYFYYGQNEYWGQGTQVTVSS	low polyreactivity
QVQLVESGGGLVQAGGRLRLSCAASGRIFVYYAMGWYRQAPGKERELVAAINSSGGRTYYADSVKGRFTISRDNAKNTVYLQMNSLKPEDTAVYYCAARKYSYPVAAHYYWGQGTQVTVSS	high polyreactivity

Sequence	polyreactivity (PSR sort gate)
QVQLVESGGGLVQAGGSLRLSCAASGIIFSGYAMGWYRQAPGKERELVAVISSSGGGTYYADSVKGRFTISRDKAKNTVYLQMNSLIPEDTAVYYCAARGREAIHGYWGQGTQVTLSS	high polyreactivity
QVHHVESGGGLVQAGGSLRLSCAASGFIFVHNAMGCYSQAPGKERELVAAIRSRGGSTYYADSVKGRFTISRDNAKNTVYLQMNRLKPEDTAGYYCAADGAVVSSSRKFGYWGQGTQVTVSS	low polyreactivity
QVQLVETGGGLVQAGGSLRISCAASGFTFSSYVMGWYRQAPGKERELVAAITRGGGSTYYADSVKGRFTISRDNAKNTVYLQMNRLKPEDTAVYYCAARGWRYSYTSVLFDYCGQGTQVTVSS	high polyreactivity
QVLLQESGGGLVQAGGSLRLSCAARGNIFSAGGMGWYSQAPVNVRELVAGIGTGTSTNYADSVKGRFTISRDNAKNTVYLQMNSLKPEDTAVYYCASGYYSGLSHWFWGQGTQVTVSS	low polyreactivity
QVQLVESGGGLVQAGGSLRLSCAASGLILSSNAMGWYRQAPGKERELVAAITWDGDRTYADSVKGRFTISRDNAKNTVYLQMNSLKPEDTAVYYCAADKQYSWYDWSYDYWGQGTQVTVSS	low polyreactivity
QVQLVDSGGGLVQAGGRLRISSAASGRISQGNAMGWYRQAPGKERELVAGISRSGGSTYYADSVKGRFTISRDNAKKTVYLQMNSLKPEDTAVYYCAARYYWRGYYWGQGTQVTVSS	high polyreactivity
QVQLVESGGRLVQAGGRLRLSCAASGSISASYAMGWYRQAPGKERELVAAITSGGSTYYADSVKGRFTISRDNAKYTVYLQMNSLKPEDTAVYYCAKRPKRTYYPHIGYDYWGLGTQVTVSS	low polyreactivity
QVQLVESGGGLVQAGGSLRLSCAASGSIFVSYAMGWYRQAPGKERELVAAITGSGASTYYADSVKGRFTISRDNAKNTVYLQMNSLKPEDTAVYFCAAAPGKGPGYDYWGQGTQVTVSS	low polyreactivity
QVQLVESGGGLFQAGGRLRLSCAATGSIFSVYTMGWYRQAPGKERELVATISFSVGRTYYADSVKGRFTISRDNEKNSVYLQMNSLKPEDTAVYYCNARSCGGYYHWGQGTQVTVSS	high polyreactivity
QVQLVESGGGLVQAGGSLRLRCAASGRIFAPYAMGRYRQAPWKERELVAAIDGSGGSTYYADSVKGRFTISRDNAKNTVYLQMNSLKPEDTAVYYCANRGYYRSQRWYGYWGQGTQVTVSS	high polyreactivity
QVQLVESGGGLVQAGGSLRLSCAASGIIFIGNAMGWYRQAPGKERELVAAISWNGVRTYYADSVKGRFTISRDNAKNTVYLQMNSLKPEYTAVYYCAAVTRRGIKLDYWGQGTQVTVSS	high polyreactivity
QVQLVESGGGLVQAGGSLRLSCAASGFIFNSNARGWYRQAPGKERELVAAISGLGGSTYYADSVKGRFTISRDNAKNTVYIQMNSLKPEDTAVYYCAADVTYGTKWAYDYWGQGTQVTVSS	high polyreactivity
QVQLVESGGGLVQAGGSLRLSCAASGSTFTGYTKGWYRQAPGKERELVAAITYRGGSTYYADSVKGRFTISRDNAKNTVYLQMNSLKPEDTAVYYCAAVPEYYEYSPYDYWGQGTQVTVSS	low polyreactivity
QVQLVESGGRLVQAGGSIRLRCAASGNTFVYNDMGWYRQAPGKERELVADIRYSGSTYYADSVKGRFTISRDNATNTVYLEMNSLKPEDTAVYYCAKAYYVLSWMGYWGQGTQVTVSS	low polyreactivity
QVQLVESGGGLVQAGGSLRLSCAASGSIFYRYAMGWNRQAPGKERELVATITQSGVSTYYADSEKGRFTISRDNAKNTVYLQMNSLKPEDTAVYYCAASYYYTIGPYFRKFDWGQGTQVTVSS	low polyreactivity
QVQLVESGGGLVQGGGSLRLSCDASGLTFPSNAMRWYRQATAKERELVASINRRGTSTFYADSVKGRFTISRDNAKNTFYLQMNSMKPEDTAVYYCNAYEGAAIRSTGRYDYWGHGTQVTVSS	low polyreactivity
QVQLVESGGGLVQAGGSLRLSCAASGSTIYPYAMGWYRQAPGKERELVAAISSGGRTYYADSVKGRFTISRDNAKNTVYLQMNSLKPEDTAVYYCAARVTKKYRRTYDYWGQGTQVTVSS	high polyreactivity
QVQLVQSGGGLVQAGGILRLSCAASVSTLFGYAMGWYRQAPGKERELVAAINTGGSTNDADSVKGRFTISRDNAKNTVYVQMNSLKPEDTAVYYCAADYEWDAFAYDYWGHGTQVTVSS	low polyreactivity
QVQLVESGGGLVQAGGSLRLSCSASGSTFTYYAMGWYRQAPVKERELVADIDFSGTSTYYADSVKGRFTVSRDNAKNTVYLQMNSLKPEDTAVYYCATDDYNWFDYDYWGQGTHVTVSS	low polyreactivity
QVKLVESGGGLVQAGGSLRLSCAASGLIFQNYAMVWYRQAPGKERELVAAISRRGGRTNYADSVKGRFTISRDNAKNNVYLQMKSLKPEDTAVYYCNAKARQSYYYRFDYWGQGTQVTVSS	high polyreactivity
QVQLVESGGGLVQAGGSLRLSCAASGRIFHRYAMGWYRQAPGKERELVAAISYSTARTYYADSVKGRFTISRDNAKNTVYLQMNSLKPEDTAVYYCAARYQGGYDYWGQGTQVTVSS	high polyreactivity

— the nanobody polyreactivity screen of Harvey et al. (2022)
